# Data reported in patent US20120204273A1, “COMPOSITIONS RELATING TO A PHOSPHOPROTEIN AND METHODS OF USE” (SANFORD-BURNHAM MEDICAL RESEARCH INSTITUTE, priority 2010, published 2012).
# Positions count from the first letter of the chain named. Names may count otherwise.
# B1: HA-CDP138-5DA: HA-tagged CDP138 with D19A, D26A, D76A, D78A, D84A (protein, UniProt Q86YS7 1-1000, looked up, variant D19A D26A D76A D78A D84A)
# C2 domain-containing protein 5: MPGKLKVKIVAGRHLPVMARASDLTAAFVEVKFGNTTFKTDVYLKSLNPQWNSEWFKFEVDDEDLQDEPLQITVLAHATYSANAAIGKVYIDIDPLLYSEAATVISGWFPIYDTIHGIRGEINVVVKVDLFNDLNRFRQSSCGVKFFCTTSIPKCYRAVIIHGFVEELVVNEDPEYQWIDRIRTPRASNEARQRLISLMSGELQRKIGLKVLEMRGNAVVGYLQCFDLEGESGLVVRAIGTACTLDKLSSPAAFLPACNSPSKEMKEIPFNEDPNPNTHSSGPSTPLKNQTYSFSPSKSYSRQSSSSDTDLSLTPKTGMGSGSAGKEGGPFKALLRQQTQSALEQREFPFFTLTAFPPGFLVHVGGVVSARSVKLLDRIHNPDEPETRDAWWAEIRQEIKSHAKALGCHAVVGYSESTSICEEVCILSASGTAAVLNPRFLQDGTVEGCLEQRLEENLPTRCGFCHIPYDELNMPFPAHLTYCYNCRKQKVPDVLFTTIDLPTDATVIGKGCLIQARLCRLKKKAQAEANATAISNLLPFMEYEVHTQLMNKLKLKGMNALFGLRIQITVGENMLMGLASATGVYLAALPTPGGIQIAGKTPNDGSYEQHISHMQKKINDTIAKNKELYEINPPEISEEIIGSPIPEPRQRSRLLRSQSESSDEVTELDLSHGKKDAFVLEIDDTDAMEDVHSLLTDVPPPSGFYSCNTEIMPGINNWTSEIQMFTSVRVIRLSSLNLTNQALNKNFNDLCENLLKSLYFKLRSMIPCCLCHVNFTVSLPEDELIQVTVTAVAITFDKNQALQTTKTPVEKSLQRASTDNEELLQFPLELCSDSLPSHPFPPAKAMTVEKASPVGDGNFRNRSAPPCANSTVGVVKMTPLSFIPGAKITKYLGIINMFFIRETTSLREEGGVSGFLHAFIAEVFAMVRAHVAALGGNAVVSYIMKQCVFMENPNKNQAQCLINVSGDAVVFVRESDLEVVSSQQPTTNCQSSCTEGEVTT
# modifications: HA tag
# notes: HA-tagged CDP138 with D19A, D26A, D76A, D78A, D84A
# B2: HA-CDP138-S197A: HA-tagged CDP138 mutant lacking the Akt2 phosphorylation site Ser197 (protein, UniProt Q86YS7 1-1000, looked up, variant S197A)
# C2 domain-containing protein 5: B1 C2 domain-containing protein 5 with A19D, A26D, A76D, A78D, A84D, S197A
# modifications: HA tag
# notes: HA-tagged CDP138 mutant lacking the Akt2 phosphorylation site Ser197
# System: 3T3-L1 adipocytes
# Test: myc-GLUT4-GFP translocation to the cell surface
# Format: cell-based, mouse
# Conditions: insulin 100 nM, 30 min
# Description: FIG. 2, panels A-C show knockdown of CDP138 in 3T3-L1 adipocytes inhibits insulin-stimulated glucose transport (A) and myc-GLUT4-GFP translocation (B), but not endogenous GLUT4 movement to the periphery detected in TIRF zone (C). (A): Differentiated adipocytes at day 5 were transfected with siRNAs against mouse 5730419I09Rik or the scrambled siRNA (Scr) as described earlier (Jiang et al., 2003) for 60 hrs, then serum starved overnight. Cells were then treated with or without insulin (1 nM and 100 nM) for 30 min for the glucose uptake assay, or 15 min for immunoblotting of CDP138, pAkt, Akt and β-actin. Glucose transport data are presented as mean±SD of 4 independent experiments. *P<0.05 vs Scr Insulin (1 nM) group; **P<0.01 vs Scr Insulin (100 nM) group. (B): Day 5 adipocytes were transfected with siRNAs and myc-GLUT4-GFP for 60 hrs and then serum starved overnight. Cells were then treated with insulin (1 nM) for 20 min. Cell surface Myc-GLUT4-GFP was detected with anti-myc monoclonal Ab (9E10) and Alexa Fluor 568-labeled goat anti-mouse IgG in non-permeablized cells. The Myc signal and GFP signal were quantified as previously described (Jiang et al., 2002). Data presented are representative microscopic images and mean±SD of about 160 GFP-positive cells in each group from three independent experiments. **P<0.01 vs Scr Insulin (1 nM) group. […] GLUT4 was detected with a goat anti-GLUT4 Ab and Alexa Fluor 488-conjugated donkey anti-goat Ab in permeabilized cells. Top and middle panels show 100 nm TIRF zone and representative GLUT4 TIRFM images, respectively. Data are mean±SD of 3 independent experiments. **P<0.01 vs Scr Insulin groups.
# GLUT4 translocation detection with wide field fluorescence and TIRF microscopy: Both wide field and TIRF microscopy were used to detect myc-GLUT4-GFP translocation to the cell surface as previously described (Jiang et al., 2002) and herein.
# To test the effect of RNAi-induced gene specific knockdown of CDP138 or overexpression of CDP138 mutants on GLUT4 translocation, siRNAs or CDP138 constructs were transfected into adipocytes together with myc-GLUT4-GFP by electroporation as previously described (Jiang et al, 2003). […] Cells were washed with cold PBS, fixed with 4% formaldehyde and immunostained. Briefly, for siRNA study, the cell surface Myc-GLUT4-GFP was visualized with mouse anti-Myc Ab (9E10) and AlexaFluoro568-labeled goat anti-mouse secondary Ab (Invitrogen) in PBS containing 1% FBS. After washing, the coverslip were mounted with Prolong antifade reagent (Invitrogen, Eugene Oreg.). Fluorescence microscopy was carried as described below. Then, images were acquired with wide field microscopy as described below. For the study with overexpressed HAtagged CDP138 constructs, the cell surface Myc-GLUT4-GFP was visualized with rabbit anti-Myc Ab (Cell signaling, Inc) and AlexaFluoro568-labeled goat anti-rabbit secondary Ab (InVitrogen) in PBS containing 1% FBS. Cells were further permeabilized with PSB containing 0.5% Tween-20, and HA-tagged protein was detected with a mouse anti-HA epitope primary Ab followed by AlexaFluoro-350-labelled goat anti-mouse IgG. Insulin-induced myc-GLUT4 accumulation (AlexaFluoro-568 signal) within the evanescence excitation field (100 nm from dorsal membrane) in transfected adipocytes was measured with a Nikon Eclipse-Ti microscope equipped with a CoolSNAP HQ2 camera and laser scanning TIRF capacity. Total GLUT4-GFP signals and […] Alexa Fluoro-350 signals were acquired with wide field imaging to identify double-transfected cells. The ratio of myc-GLUT4 signal in the TIRF zone to the total Epi-GFP signal in wide field was used as a measure of GLUT4 translocation to the cell surface.
# Image Analysis and Quantification: TIRF and wide field fluorescence microscopy were performed using a Nikon inverted microscope (Melville, N.Y.) with a cooled charge-coupled device camera. […]
Molecule,effect of overexpression on insulin-stimulated myc-GLUT4-GFP translocation (TIRF myc / Epi GFP),effect of overexpression on insulin-stimulated myc-GLUT4-GFP translocation (TIRF myc / Epi GFP) (listed as S197A)
B1,inhibited,–
B2,inhibited,blocked
